Data reported in patent US20180267027A1, “FLUORESCENT BIOSENSOR FOR […] ASSAY” (The Regents of the University of California, priority 2015, published 2018).
Like-named read-outs stand apart in the source and are kept apart here.

Assays:
[1] = literature value (Nawrocki et al.); cited from earlier work
[2] = Photophysical properties and fluorescence quantum yields of DFHBI and RNA-DFHBI complexes; type: physicochemical; conditions: this work
Description: The absorbance was measured at 448 nm and the fluorescence emission spectra was measured with 448 nm excitation for three different concentrations of the Acridine Yellow standard. The absolute quantum yield of Acridine Yellow was taken to be 0.47 as reported by Olmsted, Journal of Physical Chemistry 1979, 83, 2581-2584. The refractive index (η) was taken as 1.36 for ethanol and 1.333 for water (E. Hecht, Optics (4th edition), 2001). UV absorbance and fluorescence spectra were recorded on a Shimadzu 2501 Spectrophotometer (Shimadzu) or a Quantamaster Master 4 L-format scanning spectrofluorometer (Photon Technologies International) equipped with an LPS-220B 75-W xenon lamp and power supply, A-1010B lamp housing with integrated igniter, switchable 814 photon counting/analog photomultiplier detection unit, and MD5020 motor driver.
Quantum yields for DFHBI or RNA-DFHBI complex were determined by measuring the apparent quantum yields (Φsample.app) as a function of increasing total RNA (Ctotal RNA) at a fixed concentration of total DFHBI (CDFHBI). […] The RNA was renatured in buffer at 70° C. for 3 min and cooled to ambient temperature for 5 min prior to addition to the reaction solution. The DFHBI concentration was fixed at 10 or 20 μM in different replicates. The apparent quantum yield is described using the following equation: […]
Then, the apparent quantum yield is related to the dissociation constant Kd and concentration of DFHBI by the following equation: […]
Thus, the dissociation constants Kd and the quantum yield (Φsample) of RNA-DFHBI complexes were determined by least squares fitting to the above equation in Graphpad Prism software.

[3] = target: T1, protein lysine MTase SET7/9 (Homo sapiens, UniProt Q8WTS6); assay: Protein MTase SET7/9 inhibition assay read out with Aeh1-4 biosensor; type: biochemical
T1 construct: purchased New England Biolabs Inc (Ipswich, Mass.)
T1 sequence (Q8WTS6 1-366): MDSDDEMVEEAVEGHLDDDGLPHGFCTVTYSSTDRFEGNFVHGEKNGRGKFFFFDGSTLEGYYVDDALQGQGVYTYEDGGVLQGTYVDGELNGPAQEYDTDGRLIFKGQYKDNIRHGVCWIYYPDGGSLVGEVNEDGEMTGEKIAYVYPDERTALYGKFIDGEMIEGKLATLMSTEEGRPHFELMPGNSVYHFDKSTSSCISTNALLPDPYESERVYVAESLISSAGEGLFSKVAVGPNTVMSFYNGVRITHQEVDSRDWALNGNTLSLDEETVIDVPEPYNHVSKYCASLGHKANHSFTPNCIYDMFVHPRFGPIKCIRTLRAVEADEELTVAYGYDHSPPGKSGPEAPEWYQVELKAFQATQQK
Description: To initiate the enzyme reaction, 5 μL of H3 peptide substrate (N′-[…]-LAGGKKC-C′) (SEQ ID NO:132) was added to 5 μL of 2×enzyme reaction solution containing SET7/9, SAM, and NEB HMT buffer. Generally, final concentrations are 50 μM H3 peptide, 0.1 U/μL SET7/9, 25 μM SAM, and lx NEB HMT buffer (50 mM Tris, pH 9.0, 5 mM MgCl2, and 4 mM DTT). The reaction solution was incubated at 37° C. for 2 hours to allow the enzyme reaction to proceed.
For the kinetics assay, the reaction conditions are the same as described above except 0.05 U/μL SET7/9 was used, and the enzyme reaction was heat inactivated at different time points. For the inhibition assay, the reaction conditions are the same as described in kinetics assay except varied concentrations of sinefungin was added to the enzyme reaction solution, the reaction solution was incubated at 37° C. for 6 min (see FIG. 16), then heat inactivated by incubation at 65° C. for 15 min. For the inhibition assay shown in FIG. 17, the reaction conditions are the same as described above except 40 μM H3 peptide, 0.1 U/μL SET7/9, 40 μM SAM were used instead.
To initiate the fluorescent biosensor reaction, 10 μL of the enzyme reaction was added to 90 μL of biosensor reaction solution containing renatured RNA, DFHBI, and buffer. […] In vitro fluorescence assays were conducted as described above.

[4] = In vitro fluorescence assays of SAH biosensors (turn-on, ligand selectivity); type: biochemical; conditions: for fluorescence response to SAH at low magnesium: 3 mM magnesium; for fluorescence in the presence of ATP: 10 mM ATP; for fluorescence turn-on: 37° C., 10 mM Mg^2+
Description: Other conditions, including temperature, concentrations of MgCl2, DFHBI, ligand or RNA, were varied in different experiments and are indicated in the figures. The RNA was renatured in buffer at 70° C. for 3 min and cooled to ambient temperature for 5 min prior to addition to the reaction solution. DFHBI was added to a solution containing buffer and ligand, and then RNA was added at the end before fluorescence measurement. Binding reactions were performed in 100 μL volumes and were incubated at the indicated temperature in a Corning Costar 3915 96-well black plate until equilibrium was reached, which in some cases takes 30 to 60 minutes. The fluorescence emission was measured using a Molecular Devices SpectraMax Paradigm Multi-Mode detection platform plate reader (Sunnyvale, Calif.) with the following instrument parameters: 448 nm excitation, 506 nm emission.

[5] = system: E. coli BL21* wild-type and ΔMTAN cells; assay: Live cell detection of SAH accumulation, wild-type versus MTAN knockout, flow cytometry; type: cell-based; conditions: E. coli BL21* MTAN knockout strain 2
Description: A Targetron® Gene Knockout System (Sigma-Aldrich) was used to knock out the MTAN gene from E. coli BL21*, following manufacturer protocols.
Preparation of cell samples for flow cytometry was carried out by inoculating 2 mL of auto-induction media/Carb (F. Studier, Protein Expression and Purification 2005, 41, 207-234) with E. coli BL21* cells from colonies grown on an LB/Carb culture plate, containing pET31b plasmids encoding RNA aptamers. […] Cells were then grown aerobically overnight to saturation (0D600 varied from 5 to 10) and diluted to OD600˜0.01-0.05 in M9 minimal media (pH ˜6.0) with 100 μM DFHBI-1T. Cellular fluorescence was measured for 30,000 cells using a Life Technologies Attune N×T Acoustic Focusing Cytometer.

[6] = Binding affinity analysis of SAH biosensors
Description: The SAH concentration (cSAH) was varied, and the fluorescence of the sample with DFHBI but no RNA was subtracted as background to determine relative fluorescence units. The ratio between the fraction of biosensor that is bound by SAH and the total SAH biosensor concentration is given as:
The dissociation constants Kd were determined by least squares fitting to the following equation in Graphpad Prism software: […]

E. coli BL21* cells = assay: In vivo fluorescence of RNA aptamers by flow cytometry; type: cell-based; conditions: 100 μM DFHBI
Description: To compare the fluorescence of Spinach2 and cpSpinach2 in live cells, pET31b plasmids encoding the RNA aptamers in a tRNA scaffold were transformed into E. coli BL21* cells. Following IPTG induction of transcription, cells were incubated with DFHBI and fluorescence was quantitated by flow cytometry. The mean cellular fluorescence was measured as a function of increasing DFHBI concentration in the media, in order to determine the optimal conditions for aptamer fluorescence. Unexpectedly, full saturation of fluorescence was not observed, even when E. coli cells were incubated in media containing up to 800 μM DFHBI (FIG. 5). However, the non-specific fluorescence signal increased when DFHBI concentration exceeded 100 μM. Thus, to balance higher fluorescence activation and lower non-specific background, a concentration of 100 μM was adopted for further experiments. Under these conditions, cellular fluorescence activation for Spinach2 and cpSpinach2 was on average 34 and 22-fold over background, respectively (FIG. 6). Thus, cpSpinach2 is a functional alternative to Spinach2. Although it currently performs slightly poorer in terms of fluorescence activation in live cells, improvements are likely possible through directed mutagenesis for higher thermal stability, improved folding efficiency and less Mg^2+ dependency. […]

SET7/9 = target: T2, SET7/9 (Homo sapiens, UniProt Q8WTS6); assay: High-throughput screening (HTS) assay of SET7/9 activity and inhibition, Z′ score; type: biochemical; conditions: 384-well plate, 16 replicates, 300 μM sinefungin
T2 construct: purchased New England Biolabs Inc (Ipswich, Mass.)
T2 sequence (Q8WTS6 1-366): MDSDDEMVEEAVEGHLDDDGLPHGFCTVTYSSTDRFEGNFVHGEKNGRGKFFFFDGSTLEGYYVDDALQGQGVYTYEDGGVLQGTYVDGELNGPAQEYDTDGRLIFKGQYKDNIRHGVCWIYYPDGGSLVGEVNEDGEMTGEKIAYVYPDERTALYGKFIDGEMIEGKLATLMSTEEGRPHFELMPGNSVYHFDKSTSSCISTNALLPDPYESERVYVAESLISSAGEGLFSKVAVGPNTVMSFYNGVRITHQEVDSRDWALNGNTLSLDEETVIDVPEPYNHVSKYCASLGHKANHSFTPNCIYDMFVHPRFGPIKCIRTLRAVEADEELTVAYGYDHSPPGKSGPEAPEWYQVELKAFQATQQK
Description: For HTS experiments, samples were dispensed into a Grenier 781077 384-well flat bottom black plate using an Eppendorf Repeater […] pipetter to dispense reaction components. Z' scores were calculated from 16 well replicates in the 384-well plate. For the HTS SET7/9 activity assay, 3 μL of H3 peptide or water was added to 9 μL of reaction solution containing SET7/9 MTase, SAM, and NEB HMT Reaction Buffer in each well. Final concentrations are: 0.25 U/10 μL SET7/9, 25 μM SAM, 50 μM H3 peptide and 1×NEB HMT Reaction Buffer (50 mM Tris, pH 9.0, 5 mM MgCl2, and 4 mM DTT). After 30 min incubation at 37° C., to initiate the fluorescent biosensor reaction, 18 μL of biosensor reaction solution containing renatured RNA, DFHBI, and buffer was added to each well. […] In vitro fluorescence assays were conducted as described above. For the HTS SET7/9 inhibition assay, 4.5 μL of sinefungin or water was added to 8 μL of reaction solution containing SET7/9 MTase, and NEB HMT Reaction Buffer in each well. After 15 minutes incubation at 37° C., methylation reaction was initiated by adding 2.5 μL solution containing both SAM and H3 peptide. Final concentrations are: 0.25 U/10 μL SET7/9, 25 μM SAM, 50 μM H3 peptide, 300 μM sinefungin and 1×NEB HMT Reaction Buffer (50 mM Tris, pH 9.0, 5 mM MgCl2, and 4 mM DTT). After 30 min incubation at 37° C., to initiate the fluorescent biosensor reaction, 15 μL of biosensor reaction solution containing renatured RNA, DFHBI, and buffer was added to each well. […] In vitro fluorescence assays were conducted as described above.

[7] = 3 mM magnesium (FIG. 22), read-out: in vitro measured binding affinity for SAH

CC1=N/C(=C\c2cc(F)c(O)c(F)c2)C(=O)N1C [DFHBI, (Z)-4-(3,5-difluoro-4-hydroxybenzylidene)-1,2-dimethyl-1H-imidazol-5(4H)-one]
Emission maximum [1]: 489 nm | Excitation Maximum [1]: 423 nm | Extinction coefficient [1]: 30100 M^−1- cm^−1 | Fluorescence quantum yield [1]: 0.0007 | Emission maximum [2]: 502 ± 1 nm | Excitation Maximum [2]: 428 ± 1 nm | Extinction coefficient [2]: 30018 M^−1- cm^−1 | Fluorescence quantum yield ([2]; 30° C., 10 mM MgCl2): 0.00072 ± 0.00013

Nc1ncnc2c1ncn2[C@@H]1O[C@H](C[C@@H](N)CC[C@H](N)C(=O)O)[C@@H](O)[C@H]1O [Sinefungin]
IC50 ([3]; initial SAM concentration 40 μM): 42000 ± 16000 nM | IC50 ([3]; initial SAM concentration of 25 μM): 26000 ± 5000 nM

B1: Mpe1-5: SAH biosensor, SEQ ID NO: 39 (nucleic acid)
chain: ACTTTCGAGGAGCGTTGCAACTCCCTTGTTGAGTAGAGTGTGAGCTCCGTAACTAGTTACATCGCAAGATGTAACTGAATGAAATGGTGAAGGACGGGTCCAGGGAGCCAGGCTCGAAAGTCATCCCCCGATGCAACGGCGCTCACCCGCA
fluorescence response to SAM ([4]; 10 μM of SAM): slight response to SAM | fluorescence response to SAH at low magnesium [4]: high fluorescence response to SAH | fluorescence in the presence of ATP [4]: lower fluorescence | fluorescence turn-on [4]: ~4 fold | fold change in fluorescence between wild-type and MTAN knockout strain 2 [5]: 2.0 × | Kd [6, 7]: 19 nM | Kd ([6]; 10 mM Mg^2+, 37° C., read-out: Kd for SAH): 75 ± 7 nM

B2: Spinach2: fluorophore-binding RNA aptamer, SEQ ID NO: 92 (nucleic acid)
chain: GATGTAACTGAATGAAATGGTGAAGGACGGGTCCAGTAGGCTGCTTCGGCAGCCTACTTGTTGAGTAGAGTGTGAGCTCCGTAACTAGTTACATC
modifications: expressed or natural sequence
fluorescence in the presence of ATP [4]: showed the same effect | cellular fluorescence activation over background (E. coli BL21* cells): 34 fold

B3: Nmo1-4: SAH biosensor, SEQ ID NO: 65 (Table 2 prints 64) (nucleic acid)
chain: CTCGCCGAGGAGCGCTGCAACAGGTTGTTGAGTAGAGTGTGAGCTCCGTAACTAGTTACATCGCAAGATGTAACTGAATGAAATGGTGAAGGACGGGTCCACCTGCCAGGCTCGGCGATTATCGGGACCTTTAAACCAACGGCGCTCGGTTCAG
fluorescence response to SAH at low magnesium [4]: high fluorescence response to SAH | fluorescence turn-on [4]: ~9 fold | Z′ score, inhibitor screen (SET7/9): 0.75 | fold change in fluorescence between wild-type and MTAN knockout strain 2 [5]: 4.8 × | Kd [6, 7]: 750 nM
